Measured values from paper doi:10.1101/2022.02.17.480908.

Target: urea pre-unfolded MLucV (stable small aggregates) (firefly)
Test: SEC-RALS

stoichiometry N: 12
Substance: urea pre-unfolded MLucV (stable small aggregates)
